Measurements: the supplement of paper PMC10567573

B1: PTPLAD1 (parent)
chain: YSFYMLTCIDMDWKVLTWLRYTLW

Variants of: B1
Experiment: protein stability index of a GFP-peptide fusion (GPS, HEK-293T) (PSI 1-6); higher = more stable
Conditions: c terminus: a fixed tail appended
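Note: lentivirally expressed fusions sorted by FACS into six bins by GFP to DsRed ratio, PSI derived from sequencing read proportions per bin multiplied by bin number.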

Point of comparison: YSFYMKTCIDMDWKVLTWLRYTLW, protein stability index 1.28. Against it:
- YSFYMLTCIRMDWKVLTWLRYTLW — higher, 3.09
- YSFYMLTCILMDWKVLTWLRYTLW — higher, 1.38
- YSFYMLTCIPMDWKVLTWLRYTLW — higher, 1.95
- YSFYMLTCITMDWKVLTWLRYTLW — higher, 2.76
- YSFYMLTCINMDWKVLTWLRYTLW — higher, 2.6
- YSFYMLTCIVMDWKVLTWLRYTLW — higher, 3.62
- YSFYMLTCIQMDWKVLTWLRYTLW — higher, 3.51
- YSFYMLTCIEMDWKVLTWLRYTLW — higher, 2.65
- YSFYMLTCIIMDWKVLTWLRYTLW — higher, 2.96
- YSFYMLTCIGMDWKVLTWLRYTLW — higher, 4.97
- YSFYMLTCIAMDWKVLTWLRYTLW — higher, 3.85
- YSFYMLTCIFMDWKVLTWLRYTLW — higher, 3.86
- YSFYMLSCIDMDWKVLTWLRYTLW — higher, 2.16
- YSFYMLNCIDMDWKVLTWLRYTLW — higher, 2.85
- YSFYMLLCIDMDWKVLTWLRYTLW — higher, 2.43
- YSFYMLGCIDMDWKVLTWLRYTLW — higher, 1.4
- YSFYMLKCIDMDWKVLTWLRYTLW — higher, 2.49
- YSFYMLMCIDMDWKVLTWLRYTLW — higher, 2.02
- YSFYMLVCIDMDWKVLTWLRYTLW — lower, 1.27
- YSFYMLACIDMDWKVLTWLRYTLW — higher, 2.65
- YSFYMLYCIDMDWKVLTWLRYTLW — higher, 3.62
- YSFYMLHCIDMDWKVLTWLRYTLW — higher, 3.17
- YSFYMLDCIDMDWKVLTWLRYTLW — higher, 2.73
- YSFYMLECIDMDWKVLTWLRYTLW — higher, 3.27
- YSFYMLFCIDMDWKVLTWLRYTLW — higher, 3.29
- YSFYMLICIDMDWKVLTWLRYTLW — higher, 2.86
- YSFYMLRCIDMDWKVLTWLRYTLW — higher, 2.4
- YSFYMLQCIDMDWKVLTWLRYTLW — higher, 3.88
- YSFYMLPCIDMDWKVLTWLRYTLW — higher, 2.94
- YSFYMLTCIDMDWKVVTWLRYTLW — higher, 1.5
- YSFYMLTCIDMDWKVETWLRYTLW — higher, 2.06
- YSFYMLTCIDMDWKVWTWLRYTLW — higher, 3.38
- YSFYMLTCIDMDWKVATWLRYTLW — higher, 3.49
- YSFYMLTCIDMDWKVNTWLRYTLW — higher, 4.69
- YSFYMLTCIDMDWKVPTWLRYTLW — higher, 2.32
- YSFYMLTCIDMDWKVFTWLRYTLW — higher, 3.23
- YSFYMLTCIDMDWKVITWLRYTLW — higher, 1.75
- YSFYMLTCIDMDWKVYTWLRYTLW — higher, 1.59
- YSFYMLTCIDMDWKVQTWLRYTLW — higher, 2.4
- YSFYMLTCIDMDWKVDTWLRYTLW — higher, 3.41
- YSFYMLTCIDMDWKVRTWLRYTLW — higher, 2.13
- YSFYMLTCIDMDWKQLTWLRYTLW — higher, 2.69
- YSFYMLTCIDMDWKKLTWLRYTLW — higher, 3.92
- YSFYMLTCIDMDWKWLTWLRYTLW — higher, 2.22
- YSFYMLTCIDMDWKCLTWLRYTLW — higher, 3.85
- YSFYMLTCIDMDWKILTWLRYTLW — higher, 4.29
- YSFYMLTCIDMDWKRLTWLRYTLW — higher, 1.61
- YSFYMLTCIDMDWKLLTWLRYTLW — higher, 1.89
- YSFYMLTCIDMDWKMLTWLRYTLW — lower, 1.03
- YSFYMLTCIDMDWKNLTWLRYTLW — higher, 2.59
- YSFYMLTCIDMDWKTLTWLRYTLW — higher, 2.91
- YSFYMLTCIDMDWKYLTWLRYTLW — higher, 3.09
- YSFYMLTCIDMDWKELTWLRYTLW — higher, 1.86
- YSFYMLTCIDMDWKVLFWLRYTLW — higher, 3.31
- YSFYMLTCIDMDWKVLCWLRYTLW — higher, 1.67
- YSFYMLTCIDMDWKVLIWLRYTLW — higher, 2.68
- YSFYMLTCIDMDWKVLEWLRYTLW — higher, 2.15
- YSFYMLTCIDMDWKVLHWLRYTLW — higher, 2.63
- YSFYMLTCIDMDWKVLVWLRYTLW — higher, 2.23
- YSFYMLTCIDMDWKVLQWLRYTLW — higher, 2.82
- YSFYMLTCIDMDWKVLDWLRYTLW — higher, 2.45
- YSFYMLTCIDMDWKVLRWLRYTLW — higher, 3.47
- YSFYMLTCIDMMWKVLTWLRYTLW — higher, 1.51
- YSFYMLTCIDMVWKVLTWLRYTLW — higher, 1.79
- YSFYMLTCIDMWWKVLTWLRYTLW — higher, 1.82
- YSFYMLTCIDMEWKVLTWLRYTLW — higher, 2.68
- YSFYMLTCIDMLWKVLTWLRYTLW — higher, 2.09
- YSFYMLTCIDMHWKVLTWLRYTLW — higher, 1.75
- YSFYMLTCIDMPWKVLTWLRYTLW — higher, 1.94
- YSFYMLTCIDMAWKVLTWLRYTLW — higher, 1.63
- YSFYMLTCIDMYWKVLTWLRYTLW — higher, 1.95
- YSFYMLTCIDMTWKVLTWLRYTLW — higher, 1.91
- YSFYMLTCIDMKWKVLTWLRYTLW — higher, 3.14
- YSFYMLTCIDMCWKVLTWLRYTLW — higher, 1.65
- YSFYMLTCIDMFWKVLTWLRYTLW — higher, 2.23
- YSFYMLTCIDMIWKVLTWLRYTLW — higher, 1.82
- YSFYMLTCIDMNWKVLTWLRYTLW — higher, 2.65
- YSFYMLTCIDMRWKVLTWLRYTLW — higher, 2.18
- YSFYMLTCIDMGWKVLTWLRYTLW — higher, 2.15
- YSFYMLTCIDWDWKVLTWLRYTLW — higher, 2.13
- YSFYMLTCIDIDWKVLTWLRYTLW — higher, 2.67
- YSFYMLTCIDNDWKVLTWLRYTLW — higher, 1.86
- YSFYMLTCIDYDWKVLTWLRYTLW — higher, 3.68
- YSFYMLTCIDADWKVLTWLRYTLW — higher, 3.31
- YSFYMLTCIDRDWKVLTWLRYTLW — higher, 2.86
- YSFYMLTCIDCDWKVLTWLRYTLW — higher, 3.43
- YSFYMLTCIDDDWKVLTWLRYTLW — higher, 1.56
- YSFYMLTCIDKDWKVLTWLRYTLW — higher, 3.05
- YSFYMLTCIDHDWKVLTWLRYTLW — higher, 1.6
- YSFYMLTCIDVDWKVLTWLRYTLW — higher, 2.87
- YSFYMLTCIDPDWKVLTWLRYTLW — higher, 2.49
- YSFYMLTCIDLDWKVLTWLRYTLW — higher, 3.18
- YSFYMLTCIDEDWKVLTWLRYTLW — higher, 2.15
- YSFYMLTCIDTDWKVLTWLRYTLW — lower, 1.21
- YSFYMLTCIDFDWKVLTWLRYTLW — higher, 2.15
- YSFTMLTCIDMDWKVLTWLRYTLW — higher, 1.86
- YSFQMLTCIDMDWKVLTWLRYTLW — higher, 1.98
- YSFWMLTCIDMDWKVLTWLRYTLW — higher, 2.12
- YSFVMLTCIDMDWKVLTWLRYTLW — higher, 2.36
- YSFPMLTCIDMDWKVLTWLRYTLW — higher, 2.72
- YSFMMLTCIDMDWKVLTWLRYTLW — higher, 2.53
- YSFNMLTCIDMDWKVLTWLRYTLW — higher, 3.92
- YSFSMLTCIDMDWKVLTWLRYTLW — higher, 1.77
- YSFRMLTCIDMDWKVLTWLRYTLW — higher, 2.28
- YSFYMLTSIDMDWKVLTWLRYTLW — higher, 2.62
- YSFYMLTAIDMDWKVLTWLRYTLW — higher, 2.9
- YSFYMLTTIDMDWKVLTWLRYTLW — higher, 2.51
- YSFYMLTHIDMDWKVLTWLRYTLW — higher, 2.1
- YSFYMLTGIDMDWKVLTWLRYTLW — higher, 3.31
- YSFYMLTKIDMDWKVLTWLRYTLW — higher, 3.09
- YSFYMLTQIDMDWKVLTWLRYTLW — higher, 3.01
- YSFYMLTEIDMDWKVLTWLRYTLW — higher, 2.25
- YSFYMLTLIDMDWKVLTWLRYTLW — higher, 2.85
- YSFYMLTPIDMDWKVLTWLRYTLW — higher, 1.7
- YSFYMLTDIDMDWKVLTWLRYTLW — higher, 2
- YSFYMLTRIDMDWKVLTWLRYTLW — higher, 1.42
- YSFYMLTNIDMDWKVLTWLRYTLW — higher, 2.97
- YSFYMLTMIDMDWKVLTWLRYTLW — higher, 1.73
- YSFYMLTFIDMDWKVLTWLRYTLW — higher, 2.48
- YSFYMLTIIDMDWKVLTWLRYTLW — higher, 3.23
- YSFYMLTWIDMDWKVLTWLRYTLW — higher, 2.54
- YSFYSLTCIDMDWKVLTWLRYTLW — higher, 1.4
- YSFYPLTCIDMDWKVLTWLRYTLW — higher, 2.17
- YSFYQLTCIDMDWKVLTWLRYTLW — higher, 2.64
- YSFYRLTCIDMDWKVLTWLRYTLW — higher, 2.7
- YSFYHLTCIDMDWKVLTWLRYTLW — higher, 2.54
- YSFYDLTCIDMDWKVLTWLRYTLW — higher, 2.49
- YSFYNLTCIDMDWKVLTWLRYTLW — higher, 2.21
- YSFYFLTCIDMDWKVLTWLRYTLW — higher, 3.81
- YSFYYLTCIDMDWKVLTWLRYTLW — higher, 3.07
- YSFYVLTCIDMDWKVLTWLRYTLW — higher, 2.62
- YSFYGLTCIDMDWKVLTWLRYTLW — higher, 2.15
- YSFYKLTCIDMDWKVLTWLRYTLW — higher, 2.41
- YSFYILTCIDMDWKVLTWLRYTLW — higher, 3.07
- YSFYMYTCIDMDWKVLTWLRYTLW — higher, 3.68
- YSFYMQTCIDMDWKVLTWLRYTLW — higher, 1.31
- YSFYMHTCIDMDWKVLTWLRYTLW — higher, 3.22
- YSFYMTTCIDMDWKVLTWLRYTLW — higher, 2.85
- YSFYMFTCIDMDWKVLTWLRYTLW — higher, 2.33
- YSFYMDTCIDMDWKVLTWLRYTLW — higher, 2.56
- YSFYMPTCIDMDWKVLTWLRYTLW — higher, 2.45
- YSFYMATCIDMDWKVLTWLRYTLW — higher, 2.21
- YSFYMNTCIDMDWKVLTWLRYTLW — higher, 2.48
- YSFYMLTCIDMDWMVLTWLRYTLW — the same, 1.28
- YSFYMLTCIDMDWQVLTWLRYTLW — higher, 2.03
- YSFYMLTCIDMDWIVLTWLRYTLW — higher, 2.92
- YSFYMLTCIDMDWLVLTWLRYTLW — higher, 3.3
- YSFYMLTCIDMDWYVLTWLRYTLW — higher, 2.61
- YSFYMLTCIDMDWWVLTWLRYTLW — higher, 2.45
- YSFYMLTCIDMDWDVLTWLRYTLW — higher, 2.16
- YSFYMLTCIDMDWFVLTWLRYTLW — higher, 1.85
- YSFYMLTCIDMDWAVLTWLRYTLW — higher, 2.96
- YSFYMLTCIDMDWTVLTWLRYTLW — higher, 3.16
- YSFYMLTCIDMDWPVLTWLRYTLW — higher, 3.03
- YSFYMLTCIDMDWRVLTWLRYTLW — higher, 2.34
- YSFYMLTCIDMDWHVLTWLRYTLW — higher, 2.97
- YSFYMLTCIDMDWNVLTWLRYTLW — higher, 3.02
- YSFYMLTCIDMDNKVLTWLRYTLW — higher, 4.03
- YSFYMLTCIDMDHKVLTWLRYTLW — higher, 2.36
- YSFYMLTCIDMDMKVLTWLRYTLW — higher, 1.66
- YSFYMLTCIDMDDKVLTWLRYTLW — higher, 1.74
- YSFYMLTCIDMDIKVLTWLRYTLW — higher, 3.42
- YSFYMLTCIDMDEKVLTWLRYTLW — higher, 2.56
- YSFYMLTCIDMDKKVLTWLRYTLW — higher, 2.71
- YSFYMLTCIDMDYKVLTWLRYTLW — higher, 4.08
- YSFYMLTCIDMDRKVLTWLRYTLW — higher, 2.4
- YSFYMLTCIDMDGKVLTWLRYTLW — higher, 3.3
- YSFYMLTCIDMDAKVLTWLRYTLW — higher, 2.71
- YSFYMLTCIDMDFKVLTWLRYTLW — higher, 2.73
- YSFYMLTCIDMDPKVLTWLRYTLW — higher, 3.04
- YSFYMLTCIDMDVKVLTWLRYTLW — higher, 3.87
- YSFYMLTCIDMDLKVLTWLRYTLW — higher, 2.72
- YSFYMLTCCDMDWKVLTWLRYTLW — higher, 1.58
- YSFYMLTCFDMDWKVLTWLRYTLW — higher, 2.17
- YSFYMLTCDDMDWKVLTWLRYTLW — higher, 2.78
- YSFYMLTCWDMDWKVLTWLRYTLW — higher, 1.96
- YSFYMLTCQDMDWKVLTWLRYTLW — higher, 2.85
- YSFYMLTCYDMDWKVLTWLRYTLW — higher, 1.74
- YSFYMLTCTDMDWKVLTWLRYTLW — lower, 1.25
- YSFYMLTCHDMDWKVLTWLRYTLW — higher, 1.65
- YSFYMLTCPDMDWKVLTWLRYTLW — higher, 2.05
- YSFYMLTCKDMDWKVLTWLRYTLW — higher, 1.66
- YSFYMLTCGDMDWKVLTWLRYTLW — higher, 2.4
- YSFYMLTCRDMDWKVLTWLRYTLW — higher, 2.45
- YSFYMLTCMDMDWKVLTWLRYTLW — higher, 2.6
- YSFYMLTCADMDWKVLTWLRYTLW — higher, 2.07
- YSFYMLTCNDMDWKVLTWLRYTLW — higher, 2.78
